# Source: the RNAGym collection of RNA variant scans (doi:10.7554/elife.80360)
# B1: HDV Ribozyme (parent)
# chain: GGCCGGCAUGGUCCCAGCCUCCUCGCUGGCGCCGGCUGGGCAACAUUCCGAGGGGACCGUCCCCUCGGUAAUGGCGAAUGGGACCCA
# Variants of: B1
# Assay: self-cleavage, relative activity (ratio to wild type); higher = more cleavage; co-transcriptional
row,Variant,self-cleavage
1,C24U G52A,0.554
2,C24U G82U,0.0692
3,C24U G82C,0.163
4,G25C G52U,0.141
5,G25C G52C,0.166
6,G25A C85U,0.32
7,G25A C85A,0.237
8,G25A C85G,0.237
9,G25A C57U,0.232
10,G25A C57G,0.224
11,G25A C57A,0.194
12,C24U G40C,0.138
13,G25U G82A,0.0678
14,G25U G82C,0.0755
15,G25C U72C,0.123
16,G25C U72A,0.0791
17,G25U G54A,0.086
18,G25U C62G,0.253
19,G25C U27A,0.175
20,C24U C84G,0.157
21,C24U C84A,0.543
22,G25C G68C,0.0639
23,G25A U69C,0.302
24,G25U G40A,0.111

row,Variant,self-cleavage
1,G25C C84A,0.0489
2,C24U G25U,0.138
3,G25A G53U,0.179
4,G25U G81C,0.0923
5,G25U G81A,0.124
6,G25C G34U,0
7,G25C G34C,0.0426
8,G25C C44U,0.259
9,G25A C41A,0.212
10,G25A C41G,0.177
11,C24U U37G,0.138
12,G25A A42G,0.158
13,G25U U37G,0.0489
14,G25U U37C,0.17
15,G25A A83G,0.151
16,G25A A83C,0.146
17,G25C C58U,0.0739
18,G25C C58A,0.104
19,G25A C48G,0.122
20,G25A C48A,0.491
21,C24U G31A,0.169
22,C24U G31C,0.0615
23,G25U C57U,0.227
24,G25C G59C,0.131

row,Variant,self-cleavage
1,G25C G59U,0.116
2,G25C G59A,0.0791
3,G25A A71C,0.185
4,G25A A71U,0.0369
5,G25C A51G,0.237
6,G25A G34U,0.0702
7,G25U G74U,0.0268
8,G25U G74A,0.0707
9,G25U G74C,0.0308
10,G25A C75U,0.0923
11,G25A C75G,0.102
12,G25A C75A,0.166
13,G25U A70U,0.0852
14,G25U A70G,0.0875
15,G25C A71U,0.19
16,G25C A71C,0.0475
17,G25A A78C,0.0302
18,G25A A78U,0.0346
19,G25A G52U,0.169
20,G25C U46G,0
21,G25C U46C,0.0875
22,G25A C36U,0.153
23,G25C C33G,0.201
24,G25U C48G,0

row,Variant,self-cleavage
1,G25A A51C,0.213
2,G25A A51U,0.318
3,G25U C84A,0.222
4,G25U C84G,0.17
5,G25U C84U,0.262
6,G25A C62A,0.168
7,C24U U69G,0.764
8,C24U U69A,0.617
9,C24U U69C,0.831
10,C24U G38U,0.115
11,C24U G38C,0.0554
12,G25U A71C,0.213
13,G25U A71U,0.0396
14,G25C G29A,0.155
15,G25U C85U,0.415
16,C24U U60G,0.573
17,G25A G76U,0.3
18,G25A G76A,0.203
19,G25C U47G,0.119
20,C24U G74C,0.332
21,C24U G74A,0.0639
22,G25U C58A,0.244
23,G25C G40A,0.0386
24,C24U U27G,0.431

row,Variant,self-cleavage
1,C24U U27C,0.332
2,C24U U27A,0.399
3,G25U G68C,0.0791
4,G25U G68U,0.225
5,G25C A77U,0
6,G25C A77C,0.104
7,G25U A83G,0.0978
8,G25U A83U,0.0791
9,G25U U65C,0.237
10,G25U U65A,0
11,G25A U47C,0.107
12,G25A G67U,0.401
13,G25U G52U,0.234
14,G25U G52A,0.166
15,G25C G35C,0.115
16,G25C A83G,0.0302
17,G25C A83C,0.0489
18,G25C G81A,0
19,C24U G54C,0.748
20,C24U G54A,0.779
21,C24U G54U,0.618
22,G25A G82A,0.0978
23,G25A U65A,0.122
24,G25A U65G,0.269

row,Variant,self-cleavage
1,G25C A42G,0
2,G25C A42C,0.128
3,G25C A42U,0
4,G25C G80C,0.17
5,C24U G81C,0.111
6,C24U G81A,0.185
7,G25U G67U,0.305
8,G25C A43C,0.0554
9,G25C C61G,0.175
10,G25C C61U,0.0354
11,G25C C61A,0.201
12,G25A U79G,0
13,G25U A56C,0.122
14,G25U A56U,0.249
15,G25U A56G,0.0554
16,G25C C41U,0.0707
17,G25C C41A,0.0898
18,G25C C64A,0.203
19,G25C C64U,0.0369
20,G25C U65C,0.0536
21,G25A A43C,0
22,G25A A43G,0.35
23,G25C C26U,0
24,G25U U46C,0

row,Variant,self-cleavage
1,G25U U46G,0.199
2,G25U U46A,0.0852
3,G25U C36A,0.106
4,G25U C36G,0.108
5,C24U U46A,0.53
6,C24U U46C,0.268
7,C24U U46G,0.415
8,C24U U72C,0.104
9,C24U G50U,0.585
10,G25A C84U,0.173
11,G25C G50C,0.156
12,C24U G28U,0.119
13,G25U A51C,0.135
14,G25U A51G,0.266
15,G25C A45U,0.128
16,G25C A45C,0.0875
17,G25C C66A,0.0627
18,G25U C30U,0.102
19,C24U G67A,0.554
20,C24U G67U,0.372
21,G25A A87C,0.183
22,C24U G53U,0.802
23,C24U G53A,0.87
24,G25A G80C,0.12

row,Variant,self-cleavage
1,G25A G80U,0.0923
2,G25A G80A,0.126
3,G25C G67C,0.0415
4,G25C G67A,0.123
5,G25C G67U,0
6,G25A C33U,0.0911
7,G25A U46C,0.0831
8,G25A U46G,0.262
9,G25A U46A,0
10,G25C C57U,0.219
11,G25A C32G,0.0623
12,G25A C64A,0.115
13,G25U G29C,0.106
14,G25U U27C,0.107
15,G25U A45G,0.401
16,G25U A45C,0.0831
17,G25A A70G,0.0791
18,G25A G55A,0.193
19,G25A G55U,0.128
20,G25U G80A,0.117
21,G25C G76A,0.0875
22,G25C G76U,0.0852
23,G25C G76C,0.0723
24,G25A U27G,0.133

row,Variant,self-cleavage
1,G25A U27C,0.538
2,G25U C44G,0.249
3,C24U U65G,0.435
4,C24U U65C,0.597
5,G25U C49A,0.175
6,G25U C49G,0
7,G25U C49U,0.481
8,G25A C61G,0.185
9,G25A C61U,0.225
10,G25C G74A,0.0639
11,G25C G74C,0
12,G25U C33G,0.119
13,G25A C58U,0.248
14,G25U A43C,0.147
15,G25U A43U,0.0707
16,G25U A43G,0.0573
17,G25A G74C,0.163
18,G25A G74A,0.0767
19,G25A G74U,0.0583
20,C24U G76A,0.59
21,C24U G76C,0.997
22,G25U G50U,0.0361
23,G25C C85U,0
24,G25C C85G,0.125

row,Variant,self-cleavage
1,G25C C62A,0.18
2,G25U C26A,0.217
3,C24U G55U,0.698
4,C24U G55A,0.869
5,G25C A78C,0.0773
6,G25A,0.24
7,G25U,0.177
8,G25C,0.0909
9,G25A C86U,0.248
10,G25A G81U,0.112
11,G25A G81C,0.258
12,G25A C26A,0.0852
13,G25A C26G,1.11
14,G25A C26U,0.339
15,G25C G55C,0.106
16,G25C U37G,0.0519
17,C24U G34A,0.0292
18,C24U G34C,0.135
19,C24U G73A,0.188
20,G25C G73U,0.185
21,G25C G73C,0.0773
22,G25A G39C,0.0332
23,G25A G39U,0.0244
24,G25U G55C,0.228

row,Variant,self-cleavage
1,C24U G29U,0.0594
2,C24U G29C,0.138
3,G25C G54U,0.0652
4,G25C G54A,0.219
5,G25U C32G,0.0222
6,G25U C32A,0.105
7,G25U C32U,0.161
8,G25C U60A,0.256
9,G25A G40C,0.0959
10,G25A G40A,0.317
11,G25A G38A,0.0536
12,C24U U79G,0.244
13,G25U A87G,0.163
14,G25A U72G,0.104
15,G25A U72C,0.227
16,G25C G38A,0.259
17,G25A U60G,0.125
18,G25C G28A,0.0297
19,G25A A56G,0.227
20,G25A A56C,0.325
21,G25A A56U,0.111
22,G25U G39A,0.0963
23,G25U G39U,0.0302
24,G25U G39C,0.0773

row,Variant,self-cleavage
1,G25A G35C,0.0627
2,G25A G35U,0.135
3,C24U C86U,0.69
4,C24U C86A,0.808
5,C24U C86G,0.577
6,C24U G59U,0.736
7,C24U G59A,0.623
8,G25A C30A,0.126
9,G25A C30G,0
10,G25U G53U,0.145
11,G25C C63A,0.0755
12,G25C C63U,0.0739
13,C24U G80U,0.102
14,C24U G80A,0.0525
15,G25A G59C,0.332
16,G25C U79A,0.0615
17,G25C U79G,0.0594
18,G25C U79C,0.0923
19,G25C C49U,0.222
20,G25C C49G,0.0594
21,G25C G31C,0.0978
22,G25A C66U,0.338
23,G25C C32G,0.104
24,G25C C32U,0.0755

row,Variant,self-cleavage
1,G25C A70U,0.0898
2,G25C A70C,0.0639
3,G25U A42U,0.173
4,G25U A42C,0.135
5,G25U G28U,0.0652
6,G25U G28C,0.106
7,G25U C41A,0.125
8,C24U U47A,0.658
9,C24U U47G,0.266
10,G25C G39C,0
11,G25C G39U,0.0978
12,G25C G39A,0.119
13,G25A G73A,0.0583
14,G25A G73U,0.0702
15,G25U G35U,0.147
16,G25A G68A,0.179
17,G25A G68U,0.247
18,G25U G38C,0.0554
19,G25U G38U,0.134
20,G25A A45G,0.332
21,G25C C86U,0.104
22,G25C C86A,0.128
23,G25U U47A,0.161
24,G25U U47C,0

row,Variant,self-cleavage
1,G25U C61G,0.0978
2,G25U C61U,0.163
3,G25A G50C,0.181
4,G25A C49U,0.318
5,G25A C49G,0.0755
6,G25A C49A,0.101
7,G25A G54A,0.242
8,G25A G54U,0.202
9,G25C U69A,0.166
10,G25C U69G,0
11,G25C C48A,0.0415
12,G25C A56G,0.161
13,G25C A56U,0.178
14,G25C A56C,0.115
15,G25A G31U,0.0536
16,G25A G31A,0.0773
17,G25U A77G,0.145
18,G25A C63G,0.237
19,G25C C75G,0.185
20,G25C C75U,0
21,G25U C64U,0.113
22,G25U C64G,0.154
